In patent US20160024487 one finds FXa kcat/KM data, which are given here for 2 proteins.

Series [1] concerns the target T1, Lys(Dnp)-ATNATIVPRIVGG-Lys(Abz).
T1 chain: KATNATIVPRIVGGK

Series [2] deals with T2, Lys(Dnp)-ATNATFQPRIVGG-Lys(Abz).
T2 chain: KATNATFQPRIVGGK

In series [3] the target is T3, Lys(Dnp)-ATNATLYPRIVGG-Lys(Abz).
T3 chain: KATNATLYPRIVGGK

For series [4], the target named is T4, Lys(Dnp)-ATNATIYPRIVGG-Lys(Abz).
T4 chain: KATNATIYPRIVGGK

The target of series [5] is T5, Lys(Dnp)-ATNATLIPRIVGG-Lys(Abz).
T5 chain: KATNATLIPRIVGGK

Series [6] concerns the target T6, Lys(Dnp)-ATNATIIPRIVGG-Lys(Abz).
T6 chain: KATNATIIPRIVGGK

Series [7] addresses T7, Lys(Dnp)-ATNATLTPRIVGG-Lys(Abz).
T7 chain: KATNATLTPRIVGGK

Series [8] concerns the target T8, Lys(Dnp)-ATNATIKPRIVGG-Lys(Abz).
T8 chain: KATNATIKPRIVGGK

The target in series [9] is T9, Lys(Dnp)-ATNATWPPRIVGG-Lys(Abz).
T9 chain: KATNATWPPRIVGGK

The target in series [10] is T10, Lys(Dnp)-ATNATPKPRIVGG-Lys(Abz).
T10 chain: KATNATPKPRIVGGK

Series [11] addresses T11, Lys(Dnp)-ATNATAFPRIVGG-Lys(Abz).
T11 chain: KATNATAFPRIVGGK

For series [12], the target named is T12, Lys(Dnp)-ATNATMHPRIVGG-Lys(Abz).
T12 chain: KATNATMHPRIVGGK

Series [13] addresses T13, Lys(Dnp)-ATNATLVPRIVGG-Lys(Abz).
T13 chain: KATNATLVPRIVGGK

Series [14] concerns the target T14, Lys(Dnp)-ATNATVTPRIVGG-Lys(Abz).
T14 chain: KATNATVTPRIVGGK

In series [15] the target is T15, Lys(Dnp)-ATNATVMPRIVGG-Lys(Abz).
T15 chain: KATNATVMPRIVGGK

In series [16] the target is T16, Lys(Dnp)-ATNATAGPRIVGG-Lys(Abz).
T16 chain: KATNATAGPRIVGGK

Series [17] addresses T17, Lys(Dnp)-ATNATWGPRIVGG-Lys(Abz).
T17 chain: KATNATWGPRIVGGK

Series [18] deals with T18, Lys(Dnp)-ATNATLKPRIVGG-Lys(Abz).
T18 chain: KATNATLKPRIVGGK

For series [19], the target named is T19, Lys(Dnp)-ATNATHLPRIVGG-Lys(Abz).
T19 chain: KATNATHLPRIVGGK

Series [20] deals with T20, Lys(Dnp)-ATNATQEPRIVGG-Lys(Abz).
T20 chain: KATNATQEPRIVGGK

Series [21] deals with T21, Lys(Dnp)-ATNATKNPRIVGG-Lys(Abz).
T21 chain: KATNATKNPRIVGGK

Series [22] has as its target T22, Lys(Dnp)-ATNATTMPRIVGG-Lys(Abz).
T22 chain: KATNATTMPRIVGGK

Series [23] has as its target T23, Lys(Dnp)-ATNATFAPRIVGG-Lys(Abz).
T23 chain: KATNATFAPRIVGGK

Series [24] concerns the target T24, Lys(Dnp)-ATNATEYPRIVGG-Lys(Abz).
T24 chain: KATNATEYPRIVGGK

The target in series [25] is T25, Lys(Dnp)-ATNATHPPRIVGG-Lys(Abz).
T25 chain: KATNATHPPRIVGGK

The target in series [26] is T26, Lys(Dnp)-ATNATQNPRIVGG-Lys(Abz).
T26 chain: KATNATQNPRIVGGK

In series [27] the target is T27, Lys(Dnp)-ATNATNAPRIVGG-Lys(Abz).
T27 chain: KATNATNAPRIVGGK

Series [28] concerns the target T28, Lys(Dnp)-ATNATLNPRIVGG-Lys(Abz).
T28 chain: KATNATLNPRIVGGK

The target in series [29] is T29, Lys(Dnp)-ATNATDTPRIVGG-Lys(Abz).
T29 chain: KATNATDTPRIVGGK

The target of series [30] is T30, Lys(Dnp)-ATNATFEPRIVGG-Lys(Abz).
T30 chain: KATNATFEPRIVGGK

Series [31] has as its target T31, Lys(Dnp)-ATNATHDPRIVGG-Lys(Abz).
T31 chain: KATNATHDPRIVGGK

Series [32] addresses T32, Lys(Dnp)-ATNATSLPRIVGG-Lys(Abz).
T32 chain: KATNATSLPRIVGGK

Series [33] concerns the target T33, Lys(Dnp)-ATNATIPPRIVGG-Lys(Abz).
T33 chain: KATNATIPPRIVGGK

Series [34] has as its target T34, Lys(Dnp)-ATNATPSPRIVGG-Lys(Abz).
T34 chain: KATNATPSPRIVGGK

Series [35] has as its target T35, Lys(Dnp)-ATNATIGPRIVGG-Lys(Abz).
T35 chain: KATNATIGPRIVGGK

In series [36] the target is T36, Lys(Dnp)-ATNATMLPRIVGG-Lys(Abz).
T36 chain: KATNATMLPRIVGGK

In series [37] the target is T37, Lys(Dnp)-ATNATYNPRIVGG-Lys(Abz).
T37 chain: KATNATYNPRIVGGK

The target in series [38] is T38, Lys(Dnp)-ATNATHMPRIVGG-Lys(Abz).
T38 chain: KATNATHMPRIVGGK

Series [39] addresses T39, Lys(Dnp)-ATNATTRPRIVGG-Lys(Abz).
T39 chain: KATNATTRPRIVGGK

In series [40] the target is T40, Lys(Dnp)-ATNATERPRIVGG-Lys(Abz).
T40 chain: KATNATERPRIVGGK

Series [41] has as its target T41, Lys(Dnp)-ATNATRSPRIVGG-Lys(Abz).
T41 chain: KATNATRSPRIVGGK

B1: Human plasma purified Factor Xa (protein)
chain 1: ANSFLEEMKKGHLERECMEETCSYEEAREVFEDSDKTNEFWNKYKDGDQCETSPCQNQGKCKDGLGEYTCTCLEGFEGKNCELFTRKLCSLDNGDCDQFCHEEQNSVVCSCARGYTLADNGKACIPTGPYPCGKQTLER
chain 2: IVGGQECKDGECPWQALLINEENEGFCGGTILSEFYILTAAHCLYQAKRFKVRVGDRNTEQEEGGEAVHEVEVVIKHNRFTKETYDFDIAVLRLKTPITFRMNVAPACLPERDWAESTLMTQKTGIVSGFGRTHEKGRQSTRLKMLEVPYVDRNSCKLSSSFIITQNMFCAGYDTKQEDACQGDSGGPHVTRFKDTYFVTGIVSWGEGCARKGKYGIYTKVTAFLKWIDRSMKTRGLPKAKSHAPEVITSSPLK
For the protein B1, the FXa kcat/KM in series [1] was 360 M⁻¹ s⁻¹; in series [2] it was 260 M⁻¹ s⁻¹; in series [3], 160 M⁻¹ s⁻¹; in [4], 220 M⁻¹ s⁻¹; in [5], 420 M⁻¹ s⁻¹; in series [6] it was 490 M⁻¹ s⁻¹. In addition, the FXa kcat/KM came to 540 M⁻¹ s⁻¹ in series [7]; 120 M⁻¹ s⁻¹ in series [8]; 17 M⁻¹ s⁻¹ in [9]; 74 M⁻¹ s⁻¹ in series [10]; 22 M⁻¹ s⁻¹ in series [11]; 290 M⁻¹ s⁻¹ in [12]. Besides, the FXa kcat/KM in [13] amounted to 360 M⁻¹ s⁻¹; in series [14] it was 68 M⁻¹ s⁻¹; in series [15], 280 M⁻¹ s⁻¹; in series [16] it was 14 M⁻¹ s⁻¹; in series [17] it was 61 M⁻¹ s⁻¹; in [18] it was 72 M⁻¹ s⁻¹.

B2: Human plasma purified Factor Xa (Molecular Innovations, Inc) (protein)
chain 1: B1 chain 1
chain 2: B1 chain 2
With B2, the FXa kcat/KM in [19] stood at 140 M⁻¹ s⁻¹; in series [20], 920 M⁻¹ s⁻¹; in [21], 64 M⁻¹ s⁻¹; in [22] it was 13 M⁻¹ s⁻¹; in series [23], 130 M⁻¹ s⁻¹; in series [24], 15 M⁻¹ s⁻¹. Moreover, the FXa kcat/KM in series [25] stood at 7 M⁻¹ s⁻¹; in [26], 610 M⁻¹ s⁻¹; in [27], 17 M⁻¹ s⁻¹; in series [28], 940 M⁻¹ s⁻¹; in series [29] it was 6.4 M⁻¹ s⁻¹; in [30] it was 140 M⁻¹ s⁻¹. The FXa kcat/KM in series [31] is 86 M⁻¹ s⁻¹; in series [32], 82 M⁻¹ s⁻¹; in [33] it was 8.5 M⁻¹ s⁻¹; in series [34], 420 M⁻¹ s⁻¹; in series [35], 170 M⁻¹ s⁻¹; in [36] it was 530 M⁻¹ s⁻¹. For the same protein, the FXa kcat/KM in series [37] was determined as 50 M⁻¹ s⁻¹; in series [38] it was 270 M⁻¹ s⁻¹; in series [39] it was 37 M⁻¹ s⁻¹; in [40], 300 M⁻¹ s⁻¹; in [41], 2700 M⁻¹ s⁻¹.
